Assay results taken from patent US20260209386A1 (MYTHIC THERAPEUTICS, published 2026).

T1: Recombinant human CCK4/PTK7 Protein (His Tag), Sino Biological 19399-H08H (human, UniProt Q13308 31-704)
T1 construct: bought protein; not shown: His tag
T1 sequence: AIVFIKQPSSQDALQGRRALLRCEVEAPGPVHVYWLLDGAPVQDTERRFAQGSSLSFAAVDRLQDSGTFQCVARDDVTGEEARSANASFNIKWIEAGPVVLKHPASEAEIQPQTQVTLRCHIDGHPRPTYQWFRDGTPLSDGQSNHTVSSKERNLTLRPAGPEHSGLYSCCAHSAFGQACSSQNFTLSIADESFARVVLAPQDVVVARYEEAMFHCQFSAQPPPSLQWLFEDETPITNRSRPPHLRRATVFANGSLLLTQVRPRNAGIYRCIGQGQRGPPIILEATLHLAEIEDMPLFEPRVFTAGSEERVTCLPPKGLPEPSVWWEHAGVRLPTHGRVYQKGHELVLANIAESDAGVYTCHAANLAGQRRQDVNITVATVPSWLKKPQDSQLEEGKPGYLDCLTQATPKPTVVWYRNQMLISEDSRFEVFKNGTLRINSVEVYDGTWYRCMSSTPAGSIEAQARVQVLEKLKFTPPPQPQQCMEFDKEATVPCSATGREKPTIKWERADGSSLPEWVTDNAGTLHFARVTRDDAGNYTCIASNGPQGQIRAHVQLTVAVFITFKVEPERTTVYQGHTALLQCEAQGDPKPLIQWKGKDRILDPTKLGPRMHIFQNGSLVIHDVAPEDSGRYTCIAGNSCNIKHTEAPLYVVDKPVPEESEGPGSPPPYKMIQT


Molecular target: T1, Recombinant human CCK4/PTK7 Protein …
Assay: BLI, antibody on anti-human Fc sensor

Binder	binding result
MYT7858 (antibody, V domains shown, IgG) VH: QVQLVQSGPEVKKPGASVKVSCKASGYTFTDYAVHWVRQAPGKRLEWIGVISTYNDYTYNNQDFKGRVTMTRDTSASTAYMELSRLRSEDTAVYYCARGNSYFYALDYWGQGTSVTVSS VL: EIVLTQSPATLSLSPGERATLSCRAHESVDSYGKSFMAWYQQKPGQAPRLLIYRASNLESGIPARFSGSGSGTDFTLTISSLEPEDFAVYYCQQSNEDPWTFGGGTKLEIK	no binding (tested: 50 nM PTK7)
MYT7862 (antibody, V domains shown, IgG) VH: QVQLVQSGPEVKKPGASVKVSCKASGYTFTDYAVHWVRQAPGKRLEWIGVISTYNDYTYNNQDFKGRVTMTRDTSASTAYMELSRLRSEDTAVYYCARGNSYFYALDYWGQGTSVTVSS VL: EIVLTQSPATLSLSPGERATLSCRASESVDHYGKSFMHWYQQKPGQAPRLLIYRASNLEHGIPARFSGSGSGTDFTLTISSLEPEDFAVYYCQQSNEDPWTFGGGTKLEIK	no binding (tested: 50 nM PTK7)
MYT7963 (antibody, V domains shown, IgG) VH: EVQLVQSGGGLVHPGGSLRLSCAGSGFTHSTYLMYWVRQAPGKTLEWVSAIGSGGDTYYADSVKGRFTISRDNAKNSLYLQMNSLRAEDMAVYYCARGLGYWGQGTLVTVSS VL: not shown	no binding (tested: 50 nM PTK7)
MYT7973 (antibody, V domains shown, IgG) VH: EVQLVQSGGGLVHPGGSLRLSCAGSGFTFSTYLMYWVRQAPGKTLEWVSAIGHGGDTYYADSVKGRFTISRDNAKNSLYLQMNSLRAEDMAVYYCARGLGYWGQGTLVTVSS VL: not shown	no binding (tested: 50 nM PTK7)
MYT7986 (antibody, V domains shown, IgG) VH: EVQLVQSGGGLVHPGGSLRLSCAGSGFTFSTYLMYWVRQAPGKTLEWVSAIGSGGDTYYADSVKGRFTISRDNAKNSLYLQMNSLRAEDMAVYYCHRGLGYWGQGTLVTVSS VL: not shown	no binding (tested: 50 nM PTK7)
MYT8017 (antibody, V domains shown, IgG) VH: EVQLVQSGGGLVHPGGSLRLSCAGSGFTFSTYLMYWVRQAPGKTLEWVSAIGSGGDTYYADSVKGRFTISRDNAKNSLYLQMNSLRAEDMAVYYCARGLGYWGQGTLVTVSS VL: not shown	no binding (tested: 50 nM PTK7)
MYT7970 (antibody, V domains shown, IgG) VH: EVQLVQSGGGLVHPGGSLRLSCAGSGFTFSTYLMYWVRQAPGKTLEWVSHIGSGGDTYYADSVKGRFTISRDNAKNSLYLQMNSLRAEDMAVYYCARGLGYWGQGTLVTVSS VL: not shown	no binding (tested: 50 nM PTK7)
MYT8003 (antibody, V domains shown, IgG) VH: EVQLVQSGGGLVHPGGSLRLSCAGSGFTFSTYLMYWVRQAPGKTLEWVSAIGSGGDTYYADSVKGRFTISRDNAKNSLYLQMNSLRAEDMAVYYCARGLGYWGQGTLVTVSS VL: not shown	no binding (tested: 50 nM PTK7)
MYT8019 (antibody, V domains shown, IgG) VH: EVQLVQSGGGLVHPGGSLRLSCAGSGFTFSTYLMYWVRQAPGKTLEWVSAIGSGGDTYYADSVKGRFTISRDNAKNSLYLQMNSLRAEDMAVYYCARGLGYWGQGTLVTVSS VL: not shown	no binding (tested: 50 nM PTK7)
MYT7987 (antibody, V domains shown, IgG) VH: EVQLVQSGGGLVHPGGSLRLSCAGSGFTFSTYLMYWVRQAPGKTLEWVSAIGSGGDTYYADSVKGRFTISRDNAKNSLYLQMNSLRAEDMAVYYCAHGLGYWGQGTLVTVSS VL: not shown	no binding (tested: 50 nM PTK7)
MYT7988 (antibody, V domains shown, IgG) VH: EVQLVQSGGGLVHPGGSLRLSCAGSGFTFSTYLMYWVRQAPGKTLEWVSAIGSGGDTYYADSVKGRFTISRDNAKNSLYLQMNSLRAEDMAVYYCARHLGYWGQGTLVTVSS VL: not shown	no binding (tested: 50 nM PTK7)
